B1: His-tagged recombinant spermine synthase (SPMS) (enzyme, Arabidopsis thaliana, UniProt Q94BN2 1-359, looked up)
chain: MEGDVGIGLVCQNTMDGKASNGNGLEKTVPSCCLKAMACVPEDDAKCHSTVVSGWFSEPHPRSGKKGGKAVYFNNPMWPGEAHSLKVEKVLFKDKSDFQEVLVFESATYGKVLVLDGIVQLTEKDECAYQEMIAHLPLCSISSPKNVLVVGGGDGGVLREISRHSSVEVIDICEIDKMVIDVSKKFFPELAVGFDDPRVQLHIGDAAEFLRKSPEGKYDAIIVDSSDPVGPALALVEKPFFETLARALKPGGVLCNMAESMWLHTHLIEDMISICRQTFKSVHYAWSSVPTYPSGVIGFVLCSTEGPAVDFKNPINPIEKLDGAMTHKRELKFYNSDMHRAAFALPTFLRREVASLLAS
notes: Arabidopsis spermine synthase (SPMS, At5g53120); The Protease 3C site lies before the start ATG, and no cleavage is reported; The insert has no stop codon, so a C-terminal extension from the vector is likely (surmised); also called recombinant His-tagged aminopropyltransferase
B2: His-tagged recombinant spermidine synthase 2 (SPDS2) (enzyme, Arabidopsis thaliana, UniProt O48661 1-340, looked up)
chain: MSSTQEASVTDLPVKRPREAEEDNNGGAMETENGGGEIKEPSCMSSIIPGWFSEISPMWPGEAHSLKVEKILFQGKSDYQDVIVFQSATYGKVLVLDGVIQLTERDECAYQEMITHLPLCSISNPKKVLVIGGGDGGVLREVARHSSVEQIDICEIDKMVVDVAKQYFPNVAVGYEDPRVNLIIGDGVAFLKNAAEGTYDAVIVDSSDPIGPAKELFEKPFFESVNRALRPGGVVCTQAESLWLHMDIIEDIVSNCRDIFKGSVNYAWTSVPTYPSGVIGFMLCSSEGPQVDFKKPVSLIDTDESSIKSHCPLKYYNAEIHSAAFCLPSFAKKVIDSKAN
notes: Arabidopsis spermidine synthase 2 (SPDS2, At1g70310); The Protease 3C site lies before the start ATG, and no cleavage is reported; The insert has no stop codon, so a C-terminal extension from the vector is likely (surmised); also called recombinant His-tagged aminopropyltransferase
B3: His-tagged recombinant spermidine synthase 1 (SPDS1) (enzyme, Arabidopsis thaliana, UniProt Q9ZUB3 1-334, looked up)
chain: MDAKETSATDLKRPREEDDNGGAATMETENGDQKKEPACFSTVIPGWFSEMSPMWPGEAHSLKVEKVLFQGKSDYQDVIVFQSATYGKVLVLDGVIQLTERDECAYQEMITHLPLCSIPNPKKVLVIGGGDGGVLREVARHASIEQIDMCEIDKMVVDVSKQFFPDVAIGYEDPRVNLVIGDGVAFLKNAAEGSYDAVIVDSSDPIGPAKELFEKPFFQSVARALRPGGVVCTQAESLWLHMDIIEDIVSNCREIFKGSVNYAWTSVPTYPSGVIGFMLCSTEGPDVDFKHPLNPIDESSSKSNGPLKFYNAEIHSAAFCLPSFAKKVIESKAN
notes: Arabidopsis spermidine synthase 1 (SPDS1, At1g23820); The insert has no stop codon, so a C-terminal extension from the vector is likely (surmised); also called recombinant His-tagged aminopropyltransferase

Target: the molecule itself
Assay: SEC; 50 to 100 µg of each affinity purified His-tagged enzyme alone on Superdex 200 10/300 GL, 0.2 mL/min, 20 mM Tris-HCl pH 7.6, 150 mM NaCl; fractions followed by absorbance at 280 nm

Stoichiometry N, 2:
B1
B2
B3

From publication PMC3466176, “Aminopropyltransferases Involved in Polyamine Biosynthesis Localize Preferentially in the Nucleus of Plant Cells” (PLoS ONE, 2012)
